US20250346673A1 (DUALITY BIOLOGICS SUZHOU, published 2025)

T1: human BDCA2 (human, UniProt Q8WTT0 1-213)
T1 construct: whole, on cells; also called hBDCA2; Blood dendritic cell antigen 2
T1 sequence (looked up): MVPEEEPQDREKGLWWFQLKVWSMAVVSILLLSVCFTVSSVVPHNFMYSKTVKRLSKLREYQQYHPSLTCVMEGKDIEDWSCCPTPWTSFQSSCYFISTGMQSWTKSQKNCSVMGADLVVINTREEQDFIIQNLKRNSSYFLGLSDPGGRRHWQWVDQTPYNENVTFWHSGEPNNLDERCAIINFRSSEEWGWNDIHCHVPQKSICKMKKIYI

T2: Recombinant Human BDCA2 (human, UniProt Q8WTT0 45-213, limits assumed)
T2 construct: also called hBDCA2 (SPR analyte); human BDCA2 antigen
T2 sequence (looked up): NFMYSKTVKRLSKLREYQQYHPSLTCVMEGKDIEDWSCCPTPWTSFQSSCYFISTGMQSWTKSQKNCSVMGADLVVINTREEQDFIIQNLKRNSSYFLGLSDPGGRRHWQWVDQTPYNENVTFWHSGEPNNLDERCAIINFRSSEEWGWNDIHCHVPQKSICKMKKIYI

T3: cynomolgus BDCA2 (cynomolgus monkey, UniProt A0A2K5UWP4 1-212)
T3 construct: whole, on cells; also called Cyno BDCA2; cynoBDCA2
T3 sequence: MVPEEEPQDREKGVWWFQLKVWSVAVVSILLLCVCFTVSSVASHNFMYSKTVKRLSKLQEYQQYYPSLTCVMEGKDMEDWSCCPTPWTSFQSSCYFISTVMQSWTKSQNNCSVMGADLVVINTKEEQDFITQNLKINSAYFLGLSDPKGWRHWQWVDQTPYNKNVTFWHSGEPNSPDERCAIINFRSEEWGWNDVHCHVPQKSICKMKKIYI


Columns and labels:
[1] = molecular target: T1, human BDCA2; test: FACS on CHOK1-hBDCA2 cells; EC50 table beside the plot, unit from the x axis (nM) [continued) c.]
Protocol: (§1) The cells were recovered and resuspended to 2×10⁶/mL with FACS buffer (PBS+2% FBS). The cells were added to 3799 cell plates (Corning) at 100 μL/well, and the supernatant was discarded after centrifugation at 300 g. The antibodies were serially diluted with FACS buffer (Id.), the diluted antibodies were added to centrifuged cells and the cells were resuspended. The cells were incubated at 4° C. for 1 h. The incubated cells were centrifuged at 300 g for 5 min and washed twice with FACS buffer. 100 μL […] anti-Human IgG (H+L) Cross-Adsorbed Secondary Antibody-Alexa Fluor 488 (Sigma, A11013; 1:1000) secondary antibody was added, washed twice with FACS buffer after incubation at 4° C. for 1 h, resuspended with PBS, analyzed with FACS (BD FACS CantoTM II) instrument and curve fitted with GraphPad Prism6, and EC₅₀ values were calculated.

[2] = molecular target: T1, human BDCA2; test: cell-based or functional assay
[3] = molecular target: T1, human BDCA2; test: cell-based or functional assay; remark: listed apart in the source
[4] = molecular target: T2, Recombinant Human BDCA2; test: SPR (BIAcore), antibody captured by anti-human IgG (Fc), hBDCA2 as analyte, 1:1 model
Protocol: Then 1 M ethanolamine was injected at 10 μL/min flow rate for 420 seconds, and the excess active carboxyl groups on chip were blocked. The humanized antibodies were injected into a detection channel flow cell at flow rate of 10 μL/min for 60 s for capture after diluting to 1 μg/mL using running buffer. […] The sample hBDCA2 to be tested of each concentration gradient was injected into the detection channel at 30 μL/min flow rate, two samples at 0 concentration were used to remove background signal. The binding and dissociation times between antigen and antibody were 180 and 400 sec, respectively. An analysis of data was performed using Biacore Insight Evaluation Software (Version 2.0. 15.12933). A 1:1 binding model was selected for curve fitting and kinetic parameters were calculated after subtraction of signal of the reference channel (flow cell 1) and at 0 concentration.

[5] = molecular target: T3, cynomolgus BDCA2; test: FACS, 293F-cynoBDCA2 cells
Protocol: (§2) The cells were recovered and resuspended to 2×10⁶/mL with FACS buffer (PBS+2% FBS). The resuspended cells were added to 3799 cell plates at 100 μL/well, and the supernatant was discarded after centrifugation at 300 g. […] The cells were incubated at 4° C. for 1 h. The incubated cells were centrifuged at […] for 5 min and washed twice with FACS buffer. 100 μL Goat anti-Human IgG (H+L) Cross-Adsorbed Secondary Antibody, Alexa Fluor 488 (Sigma, A11013; 1:1000) secondary antibody was added, washed twice with FACS buffer after incubation at 4° C. for 1 h. The cells were resuspended with PBS, then the fluorescence signal of antibodies bound to cell surface was analyzed with FACS (BD FACS CantoTM II) instrument and curves were fitted with GraphPad Prism6 to calculate EC₅₀ values for antibodies binding to BDCA2 antigen.

[6] = molecular target: T1, human BDCA2; test: FACS, CHOK1-humanBDCA2 cells
Protocol: as §2

[7] = molecular target: T1, human BDCA2; test: FACS on CHOK1-hBDCA2 cells; EC50 table under the plot, unit from the x axis (nM)
Protocol: as §1

[8] = molecular target: T1, human BDCA2; test: FACS, CHOK1-humanBDCA2 cells; remark: listed apart in the source
Protocol: as §2

[9] = molecular target: T3, cynomolgus BDCA2; test: FACS, 293F-cynoBDCA2 cells; remark: listed apart in the source

Binder	EC50 [7] [nM]	EC50 [8] [nM]	binding result [9]	other results
mab033c (antibody, V domains shown) VH: EVQMVESGGDLVKPGDSLKLSCAASGFTFRSYGMSWVRQTPDKRLEWVATISSGDSYTYYPDSVKGRFTISRDNAKNTLYLQMSSLKSEDTALYYCARQIYYDYAYYFDFWGQGTTLTVSS VL: DIVLTQSPASLAVSLGQRATISCRASESVSFRTSHLMHWYQQKPGQPPKLLIYGASNLESGVPARFSGSGSETDFTLNIHPVEEEDAAAYFCQQSIEDPPTFGGGTKLEIK	–	–	–	EC50 [1]: 0.277 nM; IC50, inhibition of IFNα secretion, CpG-A stimulated human PBMC [2]: 0.00833 nM; EC50 (nM), inhibition of CpG-A stimulated IFNα release from human PBMC [3]: 0.02 nM; Kd [4]: 0.11 nM; koff [4]: 7.67e-05 s⁻¹; kon [4]: 698000 M⁻¹ s⁻¹; EC50 [5]: 0.56 nM; EC50 [6]: 0.26 nM
Hu005-07 (antibody, IgG1, V domains shown, Humanized IgG1; also called hu005-07(BM5)) VH: QVQLQESGPGLVKPSETLSLTCTVSGGSITNYGVHWIRQPPGKGLEWIGVIWSGESTDYDAAFISRVTISKDNSKNQVSLKLSSVTAADTAVYYCARRRSHYYGYVMDYWGQGTTVTVSS VL: DIVLTQSPASLAVSPGQRATITCKASQSIDYDAIGYLNWYQHKPGQPPKLLIYAASNLESGVPARFSGSGSGTDFTLTINPVEANDTANYYCQQSNEDPPTFGQGTKLEIK	–	2	binds	–
Hu005-04 (antibody, human IgG1, kappa, V domains shown, Humanized IgG1; also called hu005-04(BM6)) VH: QVQLQQSGPGLVKPSETLSLTCTVSGGSLTNYGVHWIRQPPGKGLEWIGVIWSGESTDYDAAFISRVTISKDNSKNQVSLKLSSVTAADTAVYYCARRRSHYYGYVMDYWGQGTTVTVSS VL: DIVLTQSPASLAVSPGQRATITCKASQSIDYDAIGYLNWYQQKPGQPPKLLIYAASNLESGVPARFSGSGSGTDFTLTINPVEANDTANYYCQQSNEDPPTFGQGTKLEIKR	–	2.3	binds	–
Hu005-03 (antibody, IgG1, V domains shown, Humanized IgG1; also called hu005-03(BM4)) VH: QVQLQESGPGLVKPSETLSLTCTVSGGSITNYGVHWIRQPPGKGLEWIGVIWSGESTDYDAAFISRVTISKDNSKNQVSLKLSSVTAADTAVYYCARRRSHYYGYVMDYWGQGTTVTVSS VL: DIVLTQSPASLAVSPGQRATITCKASQSIDYDAIGYLNWYQQKPGQPPKLLIYAASNLESGVPARFSGSGSGTDFTLTINPVEANDTANYYCQQSNEDPPTFGQGTKLEIK	–	2.1	binds	–
Hu005-08 (antibody, IgG1, V domains shown, Humanized IgG1; also called hu005-08(BM7)) VH: QVQLQQSGPGLVKPSETLSLTCTVSGGSLTNYGVHWIRQPPGKGLEWIGVIWSGESTDYDAAFISRVTISKDNSKNQVSLKLSSVTAADTAVYYCARRRSHYYGYVMDYWGQGTTVTVSS VL: DIVLTQSPASLAVSPGQRATITCKASQSIDYDAIGYLNWYQHKPGQPPKLLIYAASNLESGVPARFSGSGSGTDFTLTINPVEANDTANYYCQQSNEDPPTFGQGTKLEIK	–	2.3	binds	–
mab002c (antibody, V domains shown) VH: QIQLVQSGPELKKPGETVKISCRASGYSFTDYSMHWVKQAPGKGLKWVGWINTETGEPTYADDFKGRFALSLETSATSAYLQINNLKNEDTATYFCARGGDGFPYWYFNVWGAGTTVTVSS VL: DIVLTQSPTSLAVSLGQRTNISCRASQSVSTSSNSYIHWYQQKPGQPPKLLIKYASNLDSGVPARFSGSGSGTDFTLNIHPVEEEDTSTYYCQHSWEIPFTFGSGTKLEIK	1.61	–	–	–

Continued, in another order:

EC50 [7] [nM]	EC50 [8] [nM]	binding result [9]	Binder	other results
0.977	–	–	mab016c (antibody, V domains shown) VH: QVQLKQSGPGLVQPSQSLSITCTVSGFSLTSYGVHWVRQSPGKGLEWLGVIWSGESTDYDAAFISRLSISKDNSKSQVFFRMNSLQADDSAIYYCARRRSHYYGYVMDYWGQGTSVTVSS VL: DIVLTQSPASLAVSLGQRATISCKASQSVDYDGVGYLNWYQHKPGQPPKLLIYAASNLESGIPARFSGSGSGTDFTLNIHPVEEEDAATYYCQQSNEDPPTFGSGTKLEIK	–
0.964	2.2	–	mab005c (antibody, V domains shown) VH: QVQLKQSGPGLVQPSQSLSITCTVSGFSLTNYGVHWVRQSPGKGLEWLGVIWSGESTDYDAAFISRLSISKDNSKSQVFFKMNSLQADDSAIYYCARRRSHYYGYVMDYWGQGTSVTVSS VL: DIVLTQSPASLAVSLGQRATISCKASQSIDYDGIGYLNWYQHKPGQPPKLLIYAASNLESGIPARFSGSGSGTDFTLNIHPVEEEDAATYYCQQSNEDPPTFGSGTKLEIK	IC50, inhibition of IFNα secretion, CpG-A stimulated human PBMC [2]: 0.00836 nM
–	1.9	binds	Hu005-24 (antibody, IgG1, V domains shown, Humanized IgG1; also called hu005-24(BM6)) VH: QVQLQQSGPGLVKPSETLSLTCTVSGGSLTNYGVHWIRQPPGKGLEWIGVIWSGESTDYDAAFISRVTISKDNSKNQVSLKLSSVTAADTAVYYCARRRSHYYGYVMDYWGQGTTVTVSS VL: DIQMTQSPSSLSASVGDRVTITCKASQSIDYDAIGYLNWYQQKPGKAPKLLIYAASNLESGVPSRFSGSGSGTDFTLTISSLQPEDFATYYCQQSNEDPPTFGQGTKLEIK	–
